The target of this assay is T1, digoxigenin (DIG)-labeled recombinant human PCNA (human, UniProt P12004 1-261, digoxigenin label (DIG Protein Labeling Kit); labeled residues not stated).
T1 construct: proliferating cell nuclear antigen (PCNA), human, recombinant wild type; Same protein as m1, chemically labeled with digoxigenin and used as the probe in the overlay; also called PCNA-DIG; DIG-labeled PCNA
The assay can be described thus: far-Western, overlay or dot blot; Increasing amounts of non-tagged p50 or purified pol δ4 run on 12% SDS-PAGE and transferred to nitrocellulose; probed with DIG-labeled PCNA in PBS for one hour (1:10,000 dilution of 0.15 mg/ml stock); detected with Anti-DIG-HRP and ECL; films for p50 slightly overexposed. The note with it: both partners purified.

T1 sequence (P12004 whole entry): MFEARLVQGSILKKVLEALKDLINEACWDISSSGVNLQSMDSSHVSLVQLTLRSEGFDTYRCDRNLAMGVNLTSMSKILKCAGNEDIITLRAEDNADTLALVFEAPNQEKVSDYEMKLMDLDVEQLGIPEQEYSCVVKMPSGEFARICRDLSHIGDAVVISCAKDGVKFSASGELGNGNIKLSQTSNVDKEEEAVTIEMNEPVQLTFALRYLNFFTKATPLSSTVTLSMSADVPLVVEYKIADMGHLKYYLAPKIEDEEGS

B1: p12 subunit of recombinant human DNA polymerase δ four-subunit complex (natural protein, UniProt Q9HCU8 1-107, looked up)
chain: MGRKRLITDSYPVVKRREGPAGHSKGELAPELGEEPQPRDEEEAELELLRQFDLAWQYGPCTGITRLQRWCRAKQMGLEPPPEVWQVLKTHPGDPRFQCSLWHLYPL
notes: also called pol δ4 subunit p12; source: Bombyx mori (silkworm) bioreactor, purified as the pol δ four-subunit complex, resolved by SDS-PAGE
Take B1: the binding result is listed as “binds”.

For the origin of these results see paper PMC3206906, “P50, the Small Subunit of DNA Polymerase Delta, Is Required for Mediation of the Interaction of Polymerase Delta Subassemblies with PCNA” (PLoS ONE, 2011).
